Key:
[1] = tested on: permanent LAD ligation mouse model of MI
Description: B), High-frequency ultrasound echocardiography obtained in parasternal long axis (PLAX) with measurement of left ventricular ejection fraction (LVEF, %) and left ventricular end diastolic volume (LVEDV, μl) on day 7 after operation. […] Ordinary one-way ANOVA, Sidak's multiple comparison test, n=4-7 animals per group.
C), Experimental design: Mice were injected with NAPc2 (1 mg/kg/d) once daily by i.p. injection from day 1 through day 7. D), High-frequency echocardiography obtained in parasternal long axis (PLAX) with measurement of LVEF, LVEDV on day 7 after LAD ligation. E), Representative blots for protein expression analysis of pERK1/2, NOX2, TGF-β1 and α-SMA in infarcted myocardium obtained from vehicle or NAPc2 treated mice. F-H, Mice were injected with NAPc2 (1 mg/kg/d) and/or vehicle (1 mg/kg/d) once daily by i.p. injection from day 1 through day 7 followed by longitudinal analysis. […] Echocardiographic studies over 4 weeks from day 7 for LVEF (%), LVEDV (p1) in PLAX M-mode; two-way ANOVA, Bonferroni's multiple comparisons test, n=6-12 animals per each group (G). Kaplan-Meier survival analysis of LAD ligated versus sham operated NAPc2 876 and vehicle treated mice after 4 weeks. Log-rank (Mantel-Cox) test, n=7-15 animals per group (H).

human monocytes = assay: Isolated human monocytes exposed to hypoxia (OGD) plus inflammatory cytokine cocktail, western blot; assay type: cell-based; settings: NAPc2 200 ng/ml; cytokine cocktail 20 ng/ml plus hypoxia
Source text: Representative blots and quantification. […] Representative images and quantification of replicates.
Monocytes isolation and in vitro culture: Bone marrow derived cell suspensions were isolated by flushing femurs and tibias of 8-12 weeks old mice. Cell aggregates were removed by gentle pipetting and the cell lysates were passed through a 70 μm nylon strainer to remove the cell debris. Furthermore, to enrich monocytes population, mouse monocyte isolation Kit ([…] Technologies Inc., Vancouver, BC, Canada) was used according to standard protocols provided by the manufacturer. To mimic in vivo ischemic conditions, a protocol of oxygen-glucose-deprivation (OGD) is applied along with the cytokine cocktail mix (IL-6, TNF-α and MCP-1) at concentrations of 20 ng/ml for 4 hours followed by the protein expression analysis of pERK1/2, NOX2 and TGF-β1 on isolated monocytes. […] For blocking TF-FVIIa signaling on human monocytes, isolated monocytes from healthy individuals were treated with NAPc2 in the presence of OGD along with the cytokine cocktail mix followed by the protein expression analysis of pERK1/2, NOX2 and TGF-β1.

[2] = human, in vivo; cited from earlier work
[3] = prevention of venous thromboembolism, total knee replacement patients (ref 27); cited from earlier work
[4] = NAPc2 1 mg/kg/d i.p. day 1-7, western blot
[5] = NAPc2 1 mg/kg/d i.p. starting 1 day after MI, 7 d after LAD ligation

Molecule: CC(=O)Nc1cccc(-n2c(=O)n(C3CC3)c(=O)c3c(Nc4ccc(I)cc4F)n(C)c(=O)c(C)c32)c1 [trametinib, reference compound]
- cardiac function in sham-operated mice ([1]; trametinib 1 mg/kg/d oral, sham surgery): no significant effects

B1: NAPc2: single-chain, non-glycosylated 85 amino acid protein, 9732 Da; blocks TF signaling and coagulation via inhibited TF-FVIIa-FX(a) complex (protein, listed as Ancylostoma caninum)
chain: KATMQCGENEKYDSCGSKECDKKCKYDGVEEEDDEEPNVPCLVRVCHQDCVCEEGFYRNKDDKCVSAEDCELDNMDFIYPGTRN
- ERK1/2 phosphorylation (human monocytes): reduced
- NOX2 expression (human monocytes): suppressed
- TGF-β1 activation (human monocytes): suppressed
- safety [2]: documented safety
- antithrombotic effect [3]: has been demonstrated
- cardiac function (LVEF, LVEDV by echocardiography) ([1]; NAPc2 1 mg/kg/d i.p. day 1-7, day 7 after LAD ligation): improved cardiac function
- cardiac infiltration of CD11b+ myeloid cells ([1]; NAPc2 1 mg/kg/d i.p. day 1-7, flow cytometry of infarcted myocardium): attenuated
- ERK1/2 phosphorylation in the infarcted heart [1, 4]: diminished
- NOX2 expression in the infarcted heart [1, 4]: diminished
- TGF-β1 activation in the infarcted heart [1, 4]: diminished
- up-regulation of the downstream target α-SMA in the infarcted heart [1, 4]: diminished
- levels of NOX2 in circulating myeloid cells (PBMCs) [1, 5]: attenuated
- levels of active TGF-β1 in circulating myeloid cells (PBMCs) [1, 5]: attenuated
- cardiac fibrosis (fibrotic areas normalized to surface area) ([1]; short term NAPc2 1 mg/kg/d i.p. from 1 d until 7 d post MI, longitudinal analysis, compared to vehicle): significantly reduced
- survival (Kaplan-Meier, 4 weeks) ([1]; short term NAPc2 1 mg/kg/d i.p. from 1 d until 7 d post MI, LAD ligated mice): improved survival
- cardiac function in chronic MI (LVEF, LVEDV over 4 weeks) ([1]; short term NAPc2 1 mg/kg/d i.p. from 1 d until 7 d post MI, compared to vehicle): improved cardiac function
